According to patent US20200181247A1 (published 2020):

T1: cyclo(CGHHQKG) (SEQ ID NO: 12) conjugated to BSA (also: conjugated to BSA)
T1 construct: Synthetic cyclic peptide (CPC Scientific) holding HHQK of A-beta; also called Cyclic Peptide; cyclopeptide
T1 peptide: cyclo(CGHHQKG)


Tests used:
A-beta42 Monomer = molecular target: T2, A-beta42 Monomer (human); experiment: SPR; purified antibody immobilized, A-beta preparation flowed over
T2 construct: Recombinant A-beta42 peptide (California Peptide), HFIP-treated, in DMSO then water, used at once; also called Ab42 Monomer; A-beta 1-42 monomer
T2 sequence (peptide, as listed by the source): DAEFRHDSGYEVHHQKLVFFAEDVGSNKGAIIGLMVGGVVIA

[1] = molecular target: T3, A-beta42 Oligomer (synthetic, prepared in F12 medium) (human); experiment: as above
T3 construct: Non-covalent oligomer of recombinant A-beta42 (California Peptide), 100 µM in F12 medium, 24 h to 7 days at 4 °C; also called Ab42 Oligomer; A-beta 1-42 oligomers
T3 sequence (peptide, as listed by the source): as above

[2] = molecular target: T1, cyclo(CGHHQKG) (SEQ ID NO: 12) …; experiment: single cycle Biacore analysis
Experimental: The fully humanized antibodies were prepared using Composite Human Antibody™ technology. The humanized variable region genes were cloned into vectors encoding a human IgG4 (S241P hinge variant) heavy chain constant domain and a human kappa light chain constant domain. Chimeric and humanized antibodies were transiently expressed in CHO cells and Protein A purified and tested.
Binding was determined using single cycle Biacore analysis. Antibodies were analysed in two separate experiments.

[3] = molecular target: T4, commercially-prepared stable A-beta42 Oligomers (SynAging SAS) (human); experiment: ProteOn biosensor; antibody captured or amine-coupled on GLM chip, AbO dilutions 1 uM to 12.3 nM
T4 construct: Bought oligomer preparation; also called AbO (SynAging); SynAging AbO
T4 sequence (peptide, as listed by the source): as above
Experimental: AbO 3 fold-dilutions were used: 1 uM, 0.33 uM, 0.11 uM, 37 nM, 12.3 nM. Assay buffer was PBS-E+Tween 20+2 mg/ml BSA.

[4] = molecular target: T1, cyclo(CGHHQKG) (SEQ ID NO: 12) …; experiment: ProteOn biosensor; antibody amine-coupled to GLH chip, Cyclo-BSA dilutions 9 nM to 111 pM
Experimental: Cyclo-BSA 3-fold dilutions were used from 9 nM to 111 pM. Assay buffer was PBS-E+0.05% Tween+10 mg/ml BSA.

[5] = molecular target: T1, cyclo(CGHHQKG) (SEQ ID NO: 12) …; experiment: SPR; immobilized antibody pre-exposed to cyclic peptide

Binder	binding response (RU) (A-beta42 Monomer)	binding response (RU) [1] [RU]	Kd [2] [nM]	Kd [3] [nM]	other results
301-11 (antibody, V domains shown, Mouse monoclonal from hybridoma, IgG3 / kappa, raised against cyclo(CGHHQKG)-KLH) VH: EVQLVESGGGLVKPGGSLKLSCAASGFTFSDYYMYWVRQTPEKRLEWVATISDGGSYTSYPDSVKGRFTISRDNAKNNLYLQMSSLRSEDTAMYYCARDYYGSSSYTSGFAYWGQGTLVTVSA VL: DIVMSQSPSSLAVSTGEKVTMSCKSSQSLLNSRTRKNYLAWYQQKPGQSPKLLIYWASTRESGVPDRFTGSGSGTDFTLTISSVQAEDLAVYYCKQSYNLYTFGGGTKLEIK	-14.1	-2.8			
301-17 (hybridoma-purified 301-17 IgG3) (antibody, V domains shown, Mouse monoclonal from hybridoma, IgG3 / kappa; also called mu301-17) VH: QVQLQQPGAELVKPGASVKMSCKASGYSFTSYWINWVKQRPGQGLEWIGDVHPGRGVSTYNAKFKSKATLTLDTSSSTAYMQLSSLTSEDSAVYYCSRSHGNTYWFFDVWGAGTTVTVSSATTTAPS VL: DVLMTQTPLSLPVSLGDQASISCRSSQSIVHSNGNTYLEWYLQKPGQSPKLLIYKVSNRFSGVPDRFSGSGSGTDFTLKISRVEAEDLGVYYCFQGSHVPFTFGSGTKLEIKRADA	-27.1	148	0.4	~26.9	
Humanized antibody of 301-17 (VH2 Vk5), IgG4 isotype (S241P hinge mutation) (antibody, V domains shown, also called hu301-17) VH: QVQLVQSGAEVKKPGASVKMSCKASGYSFTSYWINWVKQRPGQGLEWIGDVHPGRGVSTYNAKFKSRATLTLDTSISTAYMELSSLRSEDTAVYYCSRSHGNTYWFFDVWGQGTTVTVSS VL: DVLMTQSPLSLPVTLGQPASISCRSSQSIVHSNGNTYLEWYQQRPGQSPRLLIYKVSNRFSGVPDRFSGSGSGTDFTLKISRVEAEDVGVYYCFQGSHVPFTFGQGTKLEIKR					binding result [5]: binds

More lines, main results first:

binding response (RU) (A-beta42 Monomer)	binding response (RU) [1] [RU]	Kd [2] [nM]	Kd [3] [nM]	Binder	other results
			16.2 to 19.5	Recombinant 301-17 IgG2a (antibody) heavy: QVQLQQPGAELVKPGASVKMSCKASGYSFTSYWINWVKQRPGQGLEWIGDVHPGRGVSTYNAKFKSKATLTLDTSSSTAYMQLSSLTSEDSAVYYCSRSHGNTYWFFDVWGAGTTVTVSSAKTTAPSVYPLAPVCGDTTGSSVTLGCLVKGYFPEPVTLTWNSGSLSSGVHTFPAVLQSDLYTLSSSVTVTSSTWPSQSITCNVAHPASSTKVDKKIEPRGPTIKPCPPCKCPAPNLLGGPSVFIFPPKIKDVLMISLSPIVTCVVVDVSEDDPDVQISWFVNNVEVHTAQTQTHREDYNSTLRVVSALPIQHQDWMSGKEFKCKVNNKDLPAPIERTISKPKGSVRAPQVYVLPPPEEEMTKKQVTLTCMVTDFMPEDIYVEWTNNGKTELNYKNTEPVLDSDGSYFMYSKLRVEKKNWVERNSYSCSVVHEGLHNHHTTKSFSRTPGK light: DVLMTQTPLSLPVSLGDQASISCRSSQSIVHSNGNTYLEWYLQKPGQSPKLLIYKVSNRFSGVPDRFSGSGSGTDFTLKISRVEAEDLGVYYCFQGSHVPFTFGSGTKLEIKRADAAPTVSIFPPSSEQLTSGGASVVCFLNNFYPKDINVKWKIDGSERQNGVLNSWTDQDSKDSTYSMSSTLTLTKDEYERHNSYTCEATHKTSTSPIVKSFNRNEC	Kd [4]: ~0.017 nM
		~0.02		301-17 chimeric antibody (VH0 Vk0, human IgG4) (antibody, V domains shown, expressed in CHO cells; not expressly tied to the chimeric one; also called V0H0 and V0k0) VH: QVQLQQPGAELVKPGASVKMSCKASGYSFTSYWINWVKQRPGQGLEWIGDVHPGRGVSTYNAKFKSKATLTLDTSSSTAYMQLSSLTSEDSAVYYCSRSHGNTYWFFDVWGAGTTVTVSS VL: DVLMTQTPLSLPVSLGDQASISCRSSQSIVHSNGNTYLEWYLQKPGQSPKLLIYKVSNRFSGVPDRFSGSGSGTDFTLKISRVEAEDLGVYYCFQGSHVPFTFGSGTKLEIK	
